Molecular target: TM-JM peptide of EGFR labelled at the N-terminus with Cy3 or Cy5
Assay: FRET or BRET

TM-JM peptide of EGFR labelled at the N-terminus with Cy3 or Cy5
percent of peptide dimers with a high FRET efficiency state in the trajectories: 95%
